In patent US20240101710A1:

Legend:
anti-BCMA scFv P5A2 [1] = assay: Biacore (SPR); recombinant H6
anti-BCMA scFv P5A2 [2] = assay: Biacore (SPR); H6 purified from hybridoma
[3] = target: anti-BCMA CAR clone P5A2 expressed on the cell surface; assay: flow cytometry, anti-id staining on the PE-A axis against APC-A, Anti-BCMA CAR Clone P5A2 cells; Q2 prints 0.42, Q4 33.1, Q1 0.15
[4] = target: anti-BCMA CAR clone P5A2 expressed on the cell surface; assay: flow cytometry, SSC against CAR (anti-id) staining, cell line Anti-BCMA CAR clone P5A2, recombinant H6 at '0.063G' as printed; Q4 prints 72.4
[5] = target: anti-BCMA CAR clone P5A2 expressed on the cell surface; assay: flow cytometry, SSC against CAR (anti-id) staining, cell line Anti-BCMA CAR clone P5A2, hybridoma-derived H6 at '0.063G' as printed; Q4 prints 74.0

Sequence of anti-BCMA CAR clone P5A2 expressed on the cell surface (chain, as listed by the source limits assumed): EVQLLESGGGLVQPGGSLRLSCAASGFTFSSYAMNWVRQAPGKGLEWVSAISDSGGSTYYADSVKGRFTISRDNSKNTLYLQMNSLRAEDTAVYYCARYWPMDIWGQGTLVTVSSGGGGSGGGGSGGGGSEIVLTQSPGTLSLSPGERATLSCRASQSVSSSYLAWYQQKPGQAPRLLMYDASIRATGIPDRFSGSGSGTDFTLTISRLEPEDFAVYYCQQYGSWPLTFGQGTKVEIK

Kd (anti-BCMA scFv P5A2 [1]): 3.71 nM
koff (anti-BCMA scFv P5A2 [1]): 0.00705 s⁻¹
kon (anti-BCMA scFv P5A2 [1]): 1.9e+06 M⁻¹ s⁻¹
t1/2 (anti-BCMA scFv P5A2 [1]): 1.64 min
Kd (anti-BCMA scFv P5A2 [2]): 3.73 nM
koff (anti-BCMA scFv P5A2 [2]): 0.00693 s⁻¹
kon (anti-BCMA scFv P5A2 [2]): 1.86e+06 M⁻¹ s⁻¹
t1/2 (anti-BCMA scFv P5A2 [2]): 1.67 min
percent of cells in anti-id-positive quadrant Q3 [3]: 66.3%
percent of cells in CAR-positive gate Q3 [4]: 27.6%
percent of cells in CAR-positive gate Q3 [5]: 26%
B1: anti-idiotypic antibody clone E2008.51H1.H6 (H6) (antibody, V domains shown)
VH: QVTLKESGPGILQPSQTLSLTCSFSGFSLNTSAMGVGWIRQPSGKGLEWLAHIWWNDDHYYNPALKSRVTISKDASNNQVFLKIASVVTADTATYYCARSIAPVVPTPFAYWGQGTLVTVSA
VL: DIQMTQSSSSFSVSLGDRVTITCKASEDIYNRLAWFQQKPGNAPRLLISGATRLETGVPSRFSGSGSGKDYTLSITSLQTEDVGTYYCQQYWSSSWTFGGGTKLEIK
